B1: S116B-C4: monoclonal RNA aptamer, specific ligand to HPPD from competitive SELEX S116B, SEQ. ID. No. 4 (nucleic acid)
chain: GGGAGAGGAGGGAGAUAGAUAUCAAGUAACAAAUGAUACUUUCCAAGCAUAAUUCAUUCGCAGCCCGAAUUAAGUUUGUCCUCACGGUGGAUGG
modifications: RNA, backbone not given here
B2: S116D-C8: monoclonal RNA aptamer, specific ligand to HPPD from competitive SELEX S116D, SEQ. ID. No. 5 (nucleic acid)
chain: GGGAGAGGAGGGAGAUAGAUAUCAAUAAAGUCGGUGACACCACGCAUCCAAAUACCGGUACGCGGAACUAAUAGUUUGUCCUCACGGUGGAUGG
modifications: RNA, backbone not given here
B3: S116C-C18 (nucleic acid)
DNA: GGGAGAGGAGGGAGAUAGAUAUCAAUAUCGCCACGUUACGAGUACCAAGCUUUAUUUCCGCAGCCCGAUAGAGUUUGUCCUCACGGUGGAUGG
modifications: chemistry not given here
B4: S115A-C1: monoclonal RNA aptamer binding HPPD from classical SELEX run S115A, SEQ. ID. No. 2 (nucleic acid)
chain: GGGAGAGGAGGGAGAUAGAUAUCAACAAUGACUAGCCGUGUAAGUGGUCUCGUACAUCCGAAAAAGACGACCCAGUUUGUCCUCACGGUGGAUGG
modifications: listed as RNA, chemistry not given here

Assays:
[1] = target: T1, recombinant, His-tagged HPPD (p-hydroxyphenylpyruvate dioxygenase) (Arabidopsis thaliana, UniProt P93836); assay: nitrocellulose filter retention assay, binding of radioactively labelled RNA to recombinant HPPD; conditions: monoclonal aptamer, recombinant HPPD at various concentrations; read-out: dissociation constant
T1 construct: His-tag
T1 sequence (P93836 1-445): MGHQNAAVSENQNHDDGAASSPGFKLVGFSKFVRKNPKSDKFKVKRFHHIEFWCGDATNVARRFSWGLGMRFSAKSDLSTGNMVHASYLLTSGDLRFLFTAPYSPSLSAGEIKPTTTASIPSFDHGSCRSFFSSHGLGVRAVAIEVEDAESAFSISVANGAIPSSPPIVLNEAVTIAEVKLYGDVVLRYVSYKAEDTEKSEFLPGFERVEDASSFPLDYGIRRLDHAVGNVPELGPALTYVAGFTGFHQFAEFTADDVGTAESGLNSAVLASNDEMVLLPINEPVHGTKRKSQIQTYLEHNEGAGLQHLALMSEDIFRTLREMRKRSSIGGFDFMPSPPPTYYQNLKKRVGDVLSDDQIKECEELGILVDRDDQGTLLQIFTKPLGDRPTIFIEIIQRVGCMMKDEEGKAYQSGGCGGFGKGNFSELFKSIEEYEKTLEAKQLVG
Procedure: Recombinant, His-tagged HPPD was targeted as an interaction partner in two SELEX runs, referred to as S115A and S115E, which comprised 12 and 9 cycles, respectively. Briefly, the protein was biotinylated and exposed to the RNA library with a 47 nucleotide random region (N47α) in 20 mM Hepes (pH 7.4), 150 mM NaCl, 3 mM MgCl2, and 1 mg/ml BSA (in vitro selection 5115A) or 20 mM Hepes (pH 7.4), 150 mM NaCl, 3 mM MgCl2, 10% DMSO and 1 mg/ml BSA (in vitro selection S115B). The library N47α consists of a random region of 47 nucleotides which is flanked by fixed sequences at the 5′ and 3′ end that serve as primer annealing sites for the amplification of the selected aptamer sequences via reverse transcription and PCR. The 5′ region additionally contains the sequence of an T7-RNA polymerase promoter that enables the transcription of the PCR DNA template into RNA. The sense sequence of the PCR DNA template is “5″-[…]-N47-[…]-3′ (SEQ. ID No. 1). The T7-RNA polymerase promoter is underlined. The double stranded DNA template was used to transcribe the initial RNA library. The procedures to produce an RNA library and to perform a SELEX experiment are well known to a person skilled in the art and described in, e.g., Methods in Enzymology, Vol 267, Combinatorial Chemistry (1996), Abelson J. N. and Simon M. I., eds. Academic Press, San Diego. Subsequently, the complexes between target and RNA were captured on streptavidin-coated beads and unbound RNA was removed by washing with binding buffer. […] RNA bound to the target protein is retained within the complex on the filter and was quantified by a phosphoimager. Values were calculated as the percentage of total radiolabeled RNA in the reaction.
(§1) The dissociation constant (FIG. 4B) was determined to be 128±11 nM. consistent with strong binding to S115A-C1 to recombinant HPPD.
To determine the binding properties of individual aptamers isolated as part of the mixture of aptamers binding to HPPD in the previous example, aptamers were cloned into a vector, and 24 clones were sequenced. For each experiment out of S116B, S116C and S116D, one of the cloned aptamers subsequently identified as specific ligands to HPPD (termed S116C-C18 (5″-GGGAGAGGAGGGAGAUAGAUAUCAAUAUCGCCACGUUACGAGUACCAAGCUULJ […]-3″ (SEQ. ID. No. 3)), S116B-C4 (5′-[…] UGG-3′ (SEQ. ID. No. 4)) and S116D-C8 (5″-GGGAGAGGAGGG […]-3′) (SEQ. ID. No. 5)) was analysed with respect to the thermodynamics of the binding. […] The dissociation constants determined for S116B-C4, S116C-C18 and S116D-C8, were 740±39, 832±39 and 120±9 nM, respectively, consistent with the view that decreasing the concentration of the interaction partner to 2 pM (experiment S116D) actually yield the most tightly binding aptamer.

endogenous HPPD = target: T2, endogenous HPPD (Arabidopsis thaliana, UniProt P93836); assay: pull down of endogenous HPPD from protein extract with immobilised aptamer (SDS-PAGE); type: binding; conditions: protein extract only as the source of HPPD, no recombinant protein added
T2 construct: pull down endogenous HPPD in protein extract, i.e. no recombinant protein was added; from tissue; host or cells: protein extract from freeze-dried powder of Arabidopsis thaliana
T2 sequence (P93836 1-445): T1 sequence (P93836 1-445)
Procedure: For a realistic proof of principle scenario representing attempts to identify an unknown interaction partner, biotinylated aptamer S116D-C8 was immobilised and used in attempts to pull down endogenous HPPD in protein extract, i.e. no recombinant protein was added. Again, appropriate controls such as N47α as a negative control and S116D-C8 together with recombinant HPPD were included.

recombinant HPPD = target: T3, recombinant HPPD (Arabidopsis thaliana, UniProt P93836); assay: pull down of recombinant HPPD with biotinylated aptamers immobilised on streptavidin beads (SDS-PAGE); type: binding; conditions: for pull down of HPPD (protein band on SDS-PAGE): 10 μg of HPPD, in the absence of protein extract
T3 construct: His-tag
T3 sequence (P93836 1-445): T1 sequence (P93836 1-445)
Source text: To confirm the concept that aptamers isolated using the competitive SELEX approach can be used to identify the interaction partner of interest, the two tightly binding aptamers S116C-C18 and S116D-C8, henceforth referred to as anti-HPPD aptamers, were biotinylated by in vitro transcription, using the appropriate DNA template and biotinylated ApG starter nucleotides (IBA, Göttingen) (Pitulle C. et al. (1992), Gene, 112(1):101-5; Gaur R. K. et al. (2004), Methods Mol. Biol. 252:9-17) and immobilised on paramagnetic streptavidin (SA) beads.
By contrast, the protein band assigned to HPPD was not visible when negative controls (beads only and N47α immobilised on beads) were used.

control proteins = assay: nitrocellulose filter retention assay with control proteins as negative controls; type: binding; conditions: HPPD replaced by an equivalent concentration of control proteins
Procedure: Recombinant, His-tagged HPPD was targeted as an interaction partner in two SELEX runs, referred to as S115A and S115E, which comprised 12 and 9 cycles, respectively. Briefly, the protein was biotinylated and exposed to the RNA library with a 47 nucleotide random region (N47α) in 20 mM Hepes (pH 7.4), 150 mM NaCl, 3 mM MgCl2, and 1 mg/ml BSA (in vitro selection 5115A) or 20 mM Hepes (pH 7.4), 150 mM NaCl, 3 mM MgCl2, 10% DMSO and 1 mg/ml BSA (in vitro selection S115B). The library N47α consists of a random region of 47 nucleotides which is flanked by fixed sequences at the 5′ and 3′ end that serve as primer annealing sites for the amplification of the selected aptamer sequences via reverse transcription and PCR. The 5′ region additionally contains the sequence of an T7-RNA polymerase promoter that enables the transcription of the PCR DNA template into RNA. The sense sequence of the PCR DNA template is “5″-[…]-N47-[…]-3′ (SEQ. ID No. 1). The T7-RNA polymerase promoter is underlined. The double stranded DNA template was used to transcribe the initial RNA library. […] RNA bound to the target protein is retained within the complex on the filter and was quantified by a phosphoimager. Values were calculated as the percentage of total radiolabeled RNA in the reaction.
as §1

Molecule | Kd [1] [nM] | pull down of endogenous HPPD (protein band on SDS-PAGE) (endogenous HPPD) | pull down of HPPD (protein band on SDS-PAGE) (recombinant HPPD) | pull down of recombinant HPPD (protein band on SDS-PAGE) (recombinant HPPD; different amounts of HPPD, in the presence of increasing amounts of PE) | binding to / retention by control proteins (control proteins)
B1 | 740 ± 39 |  |  |  | 
B2 | 120 ± 9 | a protein band was visually detectable | could be used to pull down HPPD | could be used to purify conveniently detectable amounts of HPPD | 
B3 | 832 ± 39 |  | could be used to pull down HPPD |  | 
B4 | 128 ± 11 |  |  |  | not by any of the control proteins

— US20100248978A1, “METHOD FOR IDENTIFYING THE INTERACTION PARTNER OF AN ACTIVE AGENT” (Bayer Cropscience AG, priority 2007, published 2010)
